In test [1] the target is biotinylated H1 (A/Solomon Islands/03/06) HA polypeptide (influenza virus A/Solomon Islands/03/06).
For test [2], the target named is HA of H1N1 influenza strain PR8 (A/Puerto Rico/8/34) (influenza virus A/Puerto Rico/8/34 …, UniProt P03452 18-565). The experiment in a line: cell-based or functional assay.
The next test deals with T1, BSA (Bos taurus, UniProt P02769).
T1 construct: also called 1% BSA
The experiment in a line: ELISA, KD table (Example 2). A general note: An ELISA detects its analyte on a solid surface through an enzyme-linked reagent.

In test [3] the target is HA polypeptide of subtype H1 (Example 1 ELISA) (influenza virus, strain ). The experiment in a line: ELISA on HA-coated plate, KD from a fit of fractional saturation (Example 2).
The target in test [4] is HA polypeptide of subtype H3 (Example 1 ELISA) (influenza virus, strain ). Described as above.

T1 sequence (P02769 25-607 limits assumed): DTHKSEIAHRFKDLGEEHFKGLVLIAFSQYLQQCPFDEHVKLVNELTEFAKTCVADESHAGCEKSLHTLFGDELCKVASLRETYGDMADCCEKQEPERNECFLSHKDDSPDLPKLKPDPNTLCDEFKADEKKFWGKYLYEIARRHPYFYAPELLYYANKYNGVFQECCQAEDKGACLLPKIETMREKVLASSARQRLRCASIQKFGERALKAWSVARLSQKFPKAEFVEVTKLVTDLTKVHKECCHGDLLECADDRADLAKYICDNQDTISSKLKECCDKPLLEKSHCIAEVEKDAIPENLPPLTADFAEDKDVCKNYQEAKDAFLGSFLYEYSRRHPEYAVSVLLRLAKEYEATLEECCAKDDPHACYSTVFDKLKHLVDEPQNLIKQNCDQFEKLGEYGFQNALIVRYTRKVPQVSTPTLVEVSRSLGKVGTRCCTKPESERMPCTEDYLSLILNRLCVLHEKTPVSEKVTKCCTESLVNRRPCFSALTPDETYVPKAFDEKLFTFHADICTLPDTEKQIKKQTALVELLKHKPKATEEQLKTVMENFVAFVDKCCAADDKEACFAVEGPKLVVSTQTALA

B1: exemplary antibody (VH-1 combined with VL-1; Table 4) (antibody, V domains shown)
VH: EVQLLESGGGLVKPGQSLKLSCAASGFTFTSYGMHWVRQPPGKGLEWVAVISYDGSYKYYADSVQGRFTISRDNSKNTLYLQMNSLRAEDTAVYYCAKDSELRSLLYFEWLSQGYFNPWGAGTTLTVSS
VL: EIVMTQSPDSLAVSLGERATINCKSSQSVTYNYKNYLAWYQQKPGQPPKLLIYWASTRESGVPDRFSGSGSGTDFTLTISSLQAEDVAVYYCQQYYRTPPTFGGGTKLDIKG
notes: also called exemplary influenza antibody
In test [1], B1 yielded a kon of 297000 M⁻¹ s⁻¹. For the same molecule, the “IC50, microneutralization assay followed by qPCR of viral yield in MDCK cells” value in test [2] amounted to 0.5 µg/mL. In the test with BSA, the binding result was “no binding”. Also, the Kd in test [3] is 0.074 nM; in test [4] it was 37.2 nM.

By kon is commonly meant a measure of how fast the partners come together. Read a low kon as slower complex formation. One may read the Kd as the concentration at which binding is half-saturated. Higher therefore signals weaker binding.
